According to US20110059015A1, “VACCINE” (priority 2002, published 2011):

What was measured:
[1] = tested on: HIV-1 LAI strain; assay: Infectivity reduction assay (IRA) in MT-2 cells, LAI; format: cell-based; settings: Fab 10 μg/ml
Method: (§1) The infectivity reduction assay (IRA) was performed using in MT-2 cells. Virus titer of LAI, SF-2, MN and RF strains was determined in MT-2 cells and expressed as TCID50 (50% tissue culture infective doses), calculated by the Spearman-Karber formula. Five 10-fold virus dilutions were mixed with different concentrations of Fabs S20, S19, S8, M02 and M025 and incubated (37° C., 1 h, 5% CO2), then added to a 96-well microtiter plate containing 10^5 MT-2 cells/well. Fresh medium (100 μl) was added 4 days later. Cytopathic effect (CPE), characterised by the appearance of giant multinuclear cells, was quantified on day 7. Six replicate wells were made for each dilution. Neutralisation was calculated by the formula % neutralisation=(1−p/n)×100, where p is the mean titer in TCID50/ml of virus produced in cultures incubated with the correspondent mixture and n is the mean titer of virus produced in cultures incubated without Fabs. Each titer point is the mean of two individual experiments.

[2] = tested on: donor virus isolate (LTNP HIV-1); assay: IRA in PBMC with donor virus isolate; format: cell-based; settings: Fab 25 μg/ml
Method: PBMC obtained from the patient in 1996 were cocultured with HIV-1-seronegative PBMC which had been stimulated for 3 days with phytohemagglutinin (PHA). Coculture was maintained in medium with interleukin-2 (IL-2) for at least 40 days (37° C., 5% CO2). Fresh PBMC were added each week and p24 antigen production was monitored every 7 days. Supernatant was harvested and characterised by TCID50% on stimulated PBMC. Supernatant (1 ml) from the coculture (1.3×10^3 TCID50%) was inoculated in 10×10^6 PBMC. After incubation (1 h, 37° C.), cells were centrifugated and 10 ml of RPMI with […] were added. Virus was grown and harvested. This first-passage virus stock was used to perform the IRA in PBMC. […] Medium with IL-2 was changed twice a week. After 14 days, the p24 assay was performed and TCID50% calculated. Neutralisation titer was calculated according to the formula given above.

[3] = tested on: HIV-1 RF; assay: Infectivity reduction assay (IRA) in MT-2 cells, RF; format: cell-based; settings: Fab 10 μg/ml
Method: as §1

[4] = tested on: HIV-1 Bal; assay: In vivo neutralisation of HIV-1 Bal infection in SCID-hu-PBMC mice; settings: Fab 100 μg i.p. x3
From the text: (A) Neutralisation of the HIV-1 MN strain by IgM Fabs M02 and M025 and IgG Fabs S8, S19 and S20 determined by plaque assay (NPA) in MT-4 cells. […] SCID mice grafted with adult human PBMC (SCID-hu-PBMC) sensitive to HIV-1 infection were infected 2 weeks after reconstitution with cell-free HIV-1 Bal stocks containing 100 TCID50. […] Peritoneal cells were recovered after 15 days and co-cultured with PHA-activated PBMC from HIV-1-seronegative individuals. Co-cultures were monitored in ELISA for HIV-1 core antigen in supernatant at days 7 (left) and 14 (right), and were considered positive when p24 was >30 ng/ml.
CB.17 SCID/SCID mice were bred and maintained under specific pathogen-free conditions in the Centro Nacional de Biotecnologia animal facility. Eight- to 10-week-old non-leaky phenotype mice were reconstituted by i.p. injection of 20×10^6 freshly isolated normal human PBMC. […] Mice were infected 2 weeks after PBMC reconstitution by i.p. injection of 0.5 ml of diluted cell-free HIV-1 Bal stocks containing 100 TCID50. Two weeks after viral challenge, mice were killed by cervical dislocation and peritoneal cells obtained by washing with ice cold PBS. […] Co-cultures were monitored by ELISA for HIV-1 core antigen in supernatant on days 7 and 14, and were considered positive when p24 was >30 ng/ml.

[5] = tested on: HIV-1 X4 (NL4-3); assay: p24 quantification after PBMC infection, X4 strain; format: cell-based; settings: NL4-3, PBMC, p24 on day 7
Method: (§2) Excess virus and Fab were removed by washing, and PBMC incubated in complete RPMI 1640 at 37° C. Every two days after infection, half the culture supernatant (500 μl) was removed and replaced with fresh medium containing rhIL-2 and Fabs at the above concentration. Cell-free supernatants were tested for HIV-1 p24 antigen on day 7 using a commercial ELISA test (Coulter, Miami, Fla.). The percentage of neutralisation was calculated as the ratio between p24 levels for test samples a lone or with Fabs. Irrelevant HmFab P1 (10 μg/ml) was used as a negative control.

[6] = tested on: HIV-1 R5 (Bal); assay: p24 quantification after PBMC infection, R5 strain; format: cell-based; settings: p24 on day 7
Method: as §2

[7] = tested on: HIV-1 MN; assay: Infectivity reduction assay (IRA) in MT-2 cells, MN; format: cell-based; settings: Fab 10 μg/ml
Method: as §1

[8] = tested on: HIV-1 SF-2; assay: Infectivity reduction assay (IRA) in MT-2 cells, SF-2; format: cell-based; settings: Fab 10 μg/ml, SF-2, MT-2 cells
Method: as §1

[9] = tested on: HIV-1 MN strain; assay: Neutralisation plaque assay (NPA) in MT-4 cells; format: cell-based
Method: A neutralisation plaque assay (NPA) was established in MT-4 cells (Harada, et al., 1985) with minor modifications (Sánchez, et al., 1993). Six-well plates (Costar, Calif.) were incubated with 1 ml of poly-L-lysine (50 μg/ml, Sigma) for 60 min at room temperature and washed three times in phosphate-buffered saline (PBS, pH 7). MT-4 cells (4×10^6/well) were added and incubated 2 h, after which unbound cells were removed. Neutralisation was performed with 100 plaque-forming units (pfu) of virus and five purified Fabs (S20, S19, S8, M02 and M025) at different concentrations. The virus-antibody mixture was incubated (37° C., 3 h), slowly added to the plates and adsorbed (37° C., 90 min), after which virus was removed and 2 ml of agarose medium (0.2% SeaPlaque agarose in complete RPMI medium) were added. Plates were incubated (37° C., 5% CO2 atmosphere), and 2 ml of agarose medium were added on day 3. Plaque production was counted with the naked eye on day 7. Neutralisation titer was calculated according to the formula % neutralisation=(1−p/n)×100, where p is the amount of virus produced in presence of the corresponding Fab, n is the mean amount of virus produced without Fab, measured by number of plaques in cultures.

[10] = molecular target: gp120 III-B (Human immunodeficiency virus type 1 group M subtype B, UniProt P04578); settings: donor serum 1/200, Fab 0.01-30 μg/ml

B1: Fab S8: human IgG1 anti-gp120 Fab from LTNP donor; light chain SEQ ID 2, heavy chain SEQ ID 4 (antibody, listed as Homo sapiens)
heavy: LESGGGLVKPGGSLRLSCAASGFTFSSYAMHWVRQAPGKGLEWVAFIWFDGSNERYADSVKGRFTITRDNPKNTLYLQMNSLRVEDTAVYYCVRRGGSILTGFHLDYWGQGTLVTVSSASTKGPSVFPLAPSSKSTSGGTAALGCLVKDYFPEPVTVSWNSGALTSGVHTFPAVLQSSGLYSLSSVVTVPSSSLGTQTYICNVNHKPSNTKVDKRVEPKSCDKTS
light: ELTQSPSSLSASVGDRVTITCRASQGIRDDLGWYQQKPGKAPKRLIYAASNLQSGVPSRFSGGGSGTEFTLTISSLQPEDFATYYCLQHNSYPLTFGGGTKVEIKRTVAAPSVFIFPPSDEQLKSGTASVVCLLNNFYPREAKVQWKVDNALQSGNSQESVTEQDSKDSTYSLSSTLTLSKADYEKHKVYACEVTHQGLSSPVTKSFNKGKVLIL
modifications: S8 Heavy chain; Light chain
neutralisation [1]: poorly neutralised | % neutralisation [2]: 32% | % neutralisation [3]: greater than 90% | Fab-treated mice with undetectable p24 ([4]; co-culture day 7, 100 TCID50 HIV-1 Bal): 100% | Fab-treated mice with undetectable p24 ([4]; co-culture day 14, 100 TCID50 HIV-1 Bal): seven of eight | Fab concentration for 50% neutralisation [5]: less than 0.1 μg/ml | Fab concentration for 50% neutralisation [6]: less than 0.1 μg/ml | % neutralisation [7]: greater than 90% | % neutralisation [8]: greater than 90% | % neutralisation ([9]; Fab 10 μg/ml): 100% | inhibition of gp120 binding of donor serum IgG [10]: inhibited

B2: Fab S19: human IgG1 anti-gp120 Fab; light chain SEQ ID 2, heavy chain SEQ ID 6 (antibody, listed as Homo sapiens)
heavy: LESGGGVVQPGRSLRLSCAASGFSFSSHGMHWVRQAPGKGLEWVAFIWFDGSNERYADSVKGRFTITRDNPKNTLYLQMNSLRVEDTAVYYCVRRGGSILTGFHLDYWGQGTLVTVSSASTKGPSVFPLAPSSKSTSGGTAALGCLVKDYFPEPVTVSWNSGALTSGVHTFPAVLQSSGLYSLSSVVTVPSSSLGTQTYICNVNHKPSNTKVDKRVEPKSCDKTS
light: ELTQSPSSLSASVGDRVTITCRASQGIRDDLGWYQQKPGKAPKRLIYAASNLQSGVPSRFSGGGSGTEFTLTISSLQPEDFATYYCLQHNSYPLTFGGGTKVEIKRTVAAPSVFIFPPSDEQLKSGTASVVCLLNNFYPREAKVQWKVDNALQSGNSQESVTEQDSKDSTYSLSSTLTLSKADYEKHKVYACEVTHQGLSSPVTKSFNKGKVLIL
modifications: S19 Heavy chain; Light chain
% neutralisation ([9]; Fab 20 μg/ml): 92%

B3: Fab S20: human IgG1 anti-gp120 Fab; light chain SEQ ID 2, heavy chain SEQ ID 8 (antibody, listed as Homo sapiens)
heavy: LESGGGVVQPGRSLRLSCSASGFSFRDYAMHWVRQAPGKGLEWVAFIWFDGSNERYADSVKGRFTITRDNPKNTLYLQMNSLRVEDTAVYYCVRRGGSILTGFHLDYWGQGTLVTVSSASTKGPSVFPLAPSSKSTSGGTAALGCLVKDYFPEPVTVSWNSGALTSGVHTFPAVLQSSGLYSLSSVVTVPSSSLGTQTYICNVNHKPSNTKVDKRVEPKSCDKTS
light: ELTQSPSSLSASVGDRVTITCRASQGIRDDLGWYQQKPGKAPKRLIYAASNLQSGVPSRFSGGGSGTEFTLTISSLQPEDFATYYCLQHNSYPLTFGGGTKVEIKRTVAAPSVFIFPPSDEQLKSGTASVVCLLNNFYPREAKVQWKVDNALQSGNSQESVTEQDSKDSTYSLSSTLTLSKADYEKHKVYACEVTHQGLSSPVTKSFNKGKVLIL
modifications: S20 Heavy chain; Light chain
% neutralisation ([9]; Fab 1 μg/ml): 100%
